What is called Kd is the equilibrium constant for the complex coming apart.

The experiment addresses T1, recombinant ECD of EGFR (UniProt P00533 25-645).
T1 construct: Epidermal growth factor receptor, recombinant extracellular domain immobilised for SPR; Source, limits and tags may be told in the Supplemental Methods
Briefly: SPR; BIAcore S200, room temperature; recombinant ECD of EGFR immobilised on a CM5 chip by amine coupling; purified rCGA injected at 30 μL/min for 60 seconds, dissociation 100 seconds; 1:1 Langmuir binding model. The conditions noted are these: both partners purified. In general terms: SPR reads the build-up and loss of mass on a sensor chip optically.

B1: recombinant human CGA (glycoprotein hormone α polypeptide), 6×His tag removed (natural protein)
chain: not shown
notes: Glycoprotein hormones alpha chain (CGA), human; CGA ORF in a modified pHL-sec vector, secreted protein; engineered enterokinase site at the C-terminus before the 6×His tag; Made in mammalian cells; Residues of the enterokinase site may be left at the C-terminus after digestion; also called rCGA; α-subunit of glycoprotein hormones; not shown: His6, C-terminal, cleaved
Regarding B1, the Kd was determined as 11.8 µM.

The record behind these values is article PMC8920335, “A CGA/EGFR/GATA2 positive feedback circuit confers chemoresistance in gastric cancer” (The Journal of Clinical Investigation, 2022).
